The record followed here is patent publication US20240026037A1 (Memorial Sloan Kettering, published 2024).

Residue numbers refer to the chain shown, from its start.

B1: G3A_chimeric (antibody, V domains shown)
VH: EVKLVESGGGLVKPGGSLKLSCAASGFAFSTYDMSWVRQTPEKRLEWVATISSGGSYTYYLDSVKGRFTISRDSARNTLYLQMSSLRSEDTALYYCAPTTVVPFAYWGQGTLVTVSA
VL: DIVMTQSQKFMSTSVGDRVSITCKASQNVRTVVAWYQQKPGQSPKTLIYLASNRHTGVPDRFTGSGSGTDFTLTISNVQSEDLADYFCLQHWSYPLTFGSGTKLEVK
B2: G3A_VK6+VH2 (antibody, V domains shown)
VH: B1 VH with K3Q, K19R, T40A, E42G, R44G, R76K, T78S, S84N, S88A, L93V
VL: DIQMTQSPSSLSASVGDRVTITCKASQNVRTVVAWYQQKPGKAPKRLIYLASNRHTGVPSRFSGSGSGTEFTLTISNLQPEDFATYFCLQHWSYPLTFGSGTKLEVK
B3: G3A_VK8+VH2 (antibody, V domains shown)
VH: B1 VH with K3Q, K19R, T40A, E42G, R44G, R76K, T78S, S84N, S88A, L93V
VL: B2 VL with T85D, F87Y
B4: G3A_VK7+VH2 (antibody, V domains shown)
VH: B1 VH with K3Q, K19R, T40A, E42G, R44G, R76K, T78S, S84N, S88A, L93V
VL: B2 VL with L78V, F87Y
B5: G3A_VK3+VH1 (antibody, IgG1, V domains shown)
VH: EVQLVESGGGLVKPGGSLRLSCAASGFAFSTYDMSWVRQAPGKGLEWVSTISSGGSYTYYADSVKGRFTISRDNAKNSLYLQMNSLRAEDTAVYYCAPTTVVPFAYWGQGTLVTVSA
VL: B2 VL with A13T, R46T, T56S, F87Y
B6: G3A_VK8+VH3 (antibody, V domains shown)
VH: B5 VH with S49A, N74S
VL: B2 VL with T85D, F87Y
B7: G3A_VK8+VH1 (antibody, V domains shown)
VH: B5 VH
VL: B2 VL with T85D, F87Y
B8: G3A_VK7+VH1 (antibody, V domains shown)
VH: B5 VH
VL: B2 VL with L78V, F87Y
B9: G3A_VK6+VH3 (antibody, V domains shown)
VH: B5 VH with S49A, N74S
VL: B2 VL
B10: G3A_VK6+VH1 (antibody, V domains shown)
VH: B5 VH
VL: B2 VL
B11: G3A_VK7+VH3 (antibody, V domains shown)
VH: B5 VH with S49A, N74S
VL: B2 VL with L78V, F87Y
B12: G3A_VK5+VH1 (antibody, V domains shown)
VH: B5 VH
VL: B2 VL with R46T, F87Y
B13: G3A_VK5+VH3 (antibody, V domains shown)
VH: B5 VH with S49A, N74S
VL: B2 VL with R46T, F87Y
B14: G3A_VK3+VH3 (antibody, IgG1, V domains shown)
VH: B5 VH with S49A, N74S
VL: B2 VL with A13T, R46T, T56S, F87Y
B15: G3A_VK4+VH3 (antibody, IgG1, V domains shown)
VH: B5 VH with S49A, N74S
VL: B2 VL with R46T, F87Y
B16: BC178 (bispecific antibody)
heavy: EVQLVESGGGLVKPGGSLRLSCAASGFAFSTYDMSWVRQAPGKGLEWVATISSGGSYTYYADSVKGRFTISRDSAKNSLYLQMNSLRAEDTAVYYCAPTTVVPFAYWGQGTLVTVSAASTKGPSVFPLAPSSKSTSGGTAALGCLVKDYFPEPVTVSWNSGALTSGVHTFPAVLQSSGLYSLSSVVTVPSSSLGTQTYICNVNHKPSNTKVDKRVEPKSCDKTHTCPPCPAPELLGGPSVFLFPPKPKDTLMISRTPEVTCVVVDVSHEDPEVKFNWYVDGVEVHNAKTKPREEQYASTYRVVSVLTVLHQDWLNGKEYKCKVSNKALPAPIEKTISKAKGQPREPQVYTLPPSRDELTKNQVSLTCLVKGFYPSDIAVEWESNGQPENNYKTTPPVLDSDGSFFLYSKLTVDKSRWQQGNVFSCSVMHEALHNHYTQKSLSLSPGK
light: DIQMTQSPSSLSTSVGDRVTITCKASQNVRTVVAWYQQKPGKAPKTLIYLASNRHSGVPSRFSGSGSGTEFTLTISNLQPEDFATYYCLQHWSYPLTFGSGTKLEVKRTVAAPSVFIFPPSDEQLKSGTASVVCLLNNFYPREAKVQWKVDNALQSGNSQESVTEQDSKDSTYSLSSTLTLSKADYEKHKVYACEVTHQGLSSPVTKSFNRGECTSGGGGSGGGGSGGGGSHVQLVESGGGLVQPGGSLRLSCAASGFSLTDYGVHWVRQAPGKGLEWLGVIWSGGGTAYNTALISRFTISRDNSKNTLYLQMNSLRAEDTAVYYCARRGSYPYNYFDAWGCGTLVTVSSGGGGSGGGGSGGGGSGGGGSGGGGSGGGGSQAVVTQEPSLTVSPGGTVTLTCGSSTGAVTASNYANWVQQKPGQCPRGLIGGHNNRPPGVPARFSGSLLGGKAALTLLGAQPEDEAEYYCALWYSDHWVIGGGTKLTVLG

The target of one assay is T1, Human GPA33 (recombinant protein, Novoprotein) (human, UniProt Q99795 22-235).
T1 construct: Bought recombinant protein immobilized on a CM5 chip; also called GPA33 antigen; tumor antigen GPA33
T1 sequence: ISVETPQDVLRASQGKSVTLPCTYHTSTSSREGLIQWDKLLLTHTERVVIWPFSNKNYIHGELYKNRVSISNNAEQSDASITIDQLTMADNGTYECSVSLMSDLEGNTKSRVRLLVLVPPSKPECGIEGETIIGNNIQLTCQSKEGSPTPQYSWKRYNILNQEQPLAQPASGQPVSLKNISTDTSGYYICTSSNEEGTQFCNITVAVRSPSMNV
Put plainly: SPR (Biacore), binding to GPA33 protein; IgG format. Here is the method: (§1) SPR analysis. Human GPA33 (Novoprotein, Summit, NJ) was immobilized on CM5 chips. Five concentrations of 2-fold serially diluted huA33 IgG1 or huA33-BsAbs (starting at 20 nM) were flowed over the chip using a Biacore™ T100 system (GE Healthcare, Chicago, IL). Binding kinetics of huA33 were measured at 25° C. and binding kinetics of huA33-BsAbs were measured at both 25° C. and 37° C. The sensorgrams were fitted with two state binding model for both to derive kinetic parameters.
(In SPR one partner is held on a chip, and binding of the other changes the refractive index at the surface.)
On to B1, for which the dissociation constant Kd stood at 196 pM.
For the molecule B2, the Kd was 1740 pM.
In the case of B3, the Kd was determined as 1850 pM.
On the same count and under the same terms, to B4 belongs 1750 pM; to B5, 190 pM; to B6, 1890 pM.
The same measure, in the same setting: the figure for B7 is 975 pM; for B8 it is 888 pM; for B9 it is 1450 pM.
On the same count and under the same terms, to B10 belongs 884 pM; to B11, 1620 pM.
On to B12, for which the dissociation constant (Kd) was found to be 171 pM.
The same measure, in the same setting: the figure for B13 is 238 pM.
On the same count and under the same terms, the figure for B14 is 241 pM; for B15 it is 236 pM.

The next assay has as its target T1, Human GPA33 (recombinant protein, …). Put plainly: SPR (Biacore), human GPA33 immobilized on CM5 chip, two-state fit, ka1. On the procedure:
as §1
B16: the kon was 5.5e+06 M⁻¹ s⁻¹.

The target is the same in the next assay. Put plainly: SPR (Biacore), human GPA33 immobilized on CM5 chip, two-state fit, kd1. In short, it runs like this:
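The off-rate (kd1) was determined by surface plasmon resonance against immobilised recombinant human GPA33, using a two-state binding model fit. Antibodies were tested on a CM5 chip in a Biacore T100 at five concentrations, from 20 nM in 2-fold serial dilutions. The parent IgG1 was measured at 25° C, and the bispecific formats at 25° C and 37° C.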
Regarding B16, the koff came out at 0.000511 s⁻¹.

Another assay concerns the target T2, Human GPA33 on GPA33+ colorectal cancer cell lines (Colo 205, LS 174T, SW 1222) (human, UniProt Q99795 22-319).
T2 construct: Endogenous GPA33 on human colorectal cancer cell lines; also called surface human GPA33; GPA33+ tumor cell lines
T2 sequence: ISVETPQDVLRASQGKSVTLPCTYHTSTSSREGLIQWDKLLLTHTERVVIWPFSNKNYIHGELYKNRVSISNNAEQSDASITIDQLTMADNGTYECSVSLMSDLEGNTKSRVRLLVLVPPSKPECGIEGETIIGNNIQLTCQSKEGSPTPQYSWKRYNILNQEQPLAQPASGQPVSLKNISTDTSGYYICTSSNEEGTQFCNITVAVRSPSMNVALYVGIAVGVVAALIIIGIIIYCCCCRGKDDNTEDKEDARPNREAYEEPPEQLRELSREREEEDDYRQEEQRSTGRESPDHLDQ
Put plainly: cell binding to LS174T Luc cells; IgG format.
In turn, B1 returned a half-maximal effective concentration (EC50) of 0.248 µg/mL.
The same measure, in the same setting: the figure for B3 is 1.09 µg/mL; for B4 it is 0.576 µg/mL.
For B5, the EC50 turned out to be 0.642 µg/mL.
Turning to B6, the EC50 was 0.433 µg/mL.
The same measure, in the same setting: the figure for B7 is 0.454 µg/mL.
The same measure, in the same setting: to B8 belongs 0.481 µg/mL; to B9, 0.847 µg/mL.
Same read-out and setting: the figure for B10 is 0.402 µg/mL; for B11 it is 0.768 µg/mL.
The molecule B12 came in with an EC50 of 0.44 µg/mL.
Still for that read-out and setting: the figure for B13 is 0.424 µg/mL; for B14 it is 0.398 µg/mL.
Same read-out and setting: to B15 belongs 0.279 µg/mL.

Another assay deals with T2, Human GPA33 on GPA33+ colorectal cancer …. Put plainly: cell binding to SW1222 Luc cells; IgG format.
Consider B1, for which the response was half-maximal at 1 µg/mL (EC50).
Still for that read-out and setting: to B2 belongs 1.07 µg/mL.
The same measure, in the same setting: to B3 belongs 0.993 µg/mL; to B4, 0.795 µg/mL.
Same read-out and setting: the figure for B5 is 0.338 µg/mL; for B6 it is 0.792 µg/mL.
On to B7, for which the EC50 amounted to 0.568 µg/mL.
Same read-out and setting: to B8 belongs 1.14 µg/mL.
The same measure, in the same setting: to B9 belongs 0.614 µg/mL; to B10, 0.831 µg/mL; to B12, 0.496 µg/mL.
On the same count and under the same terms, to B13 belongs 0.387 µg/mL; to B14, 0.391 µg/mL.
The molecule B15 showed an EC50 of 1.03 µg/mL.

The next assay has as its target T1, Human GPA33 (recombinant protein, …). In words: SPR (Biacore), human GPA33 immobilized on CM5 chip, two-state fit. Here is the method:
as §1
Take B16: the Kd came out at 7.92 pM, the ka2 amounted to 0.0541 s⁻¹ and the kd2 is 0.00504 s⁻¹.

Broadly, the Kd is the constant that tells how readily two partners part at equilibrium. Usually kon stands for the rate constant with which the complex forms. The term koff denotes the first-order rate constant of dissociation. As a reminder, the EC50 is the concentration needed to bring the measured effect to its halfway point. Higher therefore signals lower potency in that assay.
